Experimental data taken from the supplement of paper PMC9876800.

Test system: peptide library, one residue held at a place counted from the S/T acceptor
Assay: relative phosphorylation of the sub-library (ratio to the mean residue at this position); higher = residue favoured
Conditions: human
In short: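 Relative sub-library phosphorylation, a ratio to the mean residue at that position, was obtained by phosphorimaging and densitometry of spots on streptavidin membranes. Before capture, purified recombinant kinases were incubated for 90 min under kinase-specific conditions with 50 μM biotinylated degenerate peptide sub-libraries and 50 μM ATP spiked with γ-32P-ATP. Each sub-library fixed one residue at one position around a central Ser/Thr.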

Chain of HIPK4, construct: Full length (Q8NE63 whole entry, looked up): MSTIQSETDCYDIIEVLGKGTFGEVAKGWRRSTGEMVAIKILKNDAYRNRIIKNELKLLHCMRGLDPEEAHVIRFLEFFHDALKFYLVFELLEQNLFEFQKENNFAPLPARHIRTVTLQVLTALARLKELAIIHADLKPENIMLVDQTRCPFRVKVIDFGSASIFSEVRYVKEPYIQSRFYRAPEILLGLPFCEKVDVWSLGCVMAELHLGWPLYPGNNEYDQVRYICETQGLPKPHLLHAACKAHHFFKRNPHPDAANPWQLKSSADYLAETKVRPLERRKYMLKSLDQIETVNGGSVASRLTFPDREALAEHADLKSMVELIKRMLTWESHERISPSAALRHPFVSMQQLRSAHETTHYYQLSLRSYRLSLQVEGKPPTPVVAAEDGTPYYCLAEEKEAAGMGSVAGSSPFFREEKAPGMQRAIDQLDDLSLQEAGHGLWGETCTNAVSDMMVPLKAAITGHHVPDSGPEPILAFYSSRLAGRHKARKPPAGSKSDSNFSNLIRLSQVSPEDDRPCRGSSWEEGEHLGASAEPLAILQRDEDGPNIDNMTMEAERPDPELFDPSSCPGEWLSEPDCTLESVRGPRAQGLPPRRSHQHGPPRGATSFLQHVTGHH

HIPK4, construct: Full length (from UniProt Q8NE63)
relative phosphorylation
Conditions | at +1 | at +2 | at +3 | at +4 | at -1 | at -2 | at -3 | at -4 | at -5
A fixed | 0.793 | 1.38 | 1.1 | 1.63 | 1.15 | 2.12 | 0.851 | 0.995 | 0.967
D fixed | 0.277 | 0.726 | 0.71 | 0.68 | 0.67 | 0.463 | 0.711 | 0.697 | 0.886
E fixed | 0.34 | 0.618 | 0.505 | 0.578 | 0.693 | 0.354 | 0.477 | 0.702 | 0.719
F fixed | 0.339 | 1.46 | 1.08 | 1.11 | 0.616 | 0.478 | 0.453 | 0.816 | 1.13
G fixed | 0.586 | 1.58 | 1.49 | 1.07 | 1.03 | 1.07 | 0.877 | 1.27 | 1.26
H fixed | 0.671 | 1.13 | 0.857 | 0.716 | 0.991 | 0.507 | 0.649 | 0.803 | 1.08
I fixed | 0.427 | 0.675 | 0.857 | 1.31 | 0.589 | 0.837 | 0.807 | 0.82 | 0.841
K fixed | 1 | 0.686 | 0.565 | 0.63 | 1.72 | 0.808 | 0.926 | 0.864 | 0.833
L fixed | 0.508 | 0.696 | 0.816 | 1.64 | 0.783 | 0.916 | 0.669 | 1.12 | 0.968
M fixed | 0.403 | 0.805 | 0.812 | 1.53 | 0.836 | 0.602 | 0.661 | 0.895 | 0.735
N fixed | 1.15 | 0.806 | 0.752 | 0.59 | 0.984 | 0.875 | 0.803 | 0.639 | 0.855
P fixed | 5 | 2.12 | 3.82 | 1.33 | 2.03 | 4.06 | 1.14 | 2.12 | 1.15
Q fixed | 0.894 | 0.753 | 0.657 | 0.631 | 1.23 | 0.639 | 0.799 | 0.759 | 0.842
R fixed | 3.2 | 0.719 | 0.525 | 0.503 | 1.57 | 1.35 | 5.38 | 2.01 | 1.47
V fixed | 0.684 | 0.669 | 0.647 | 1.28 | 0.687 | 1.09 | 0.615 | 0.67 | 0.793
W fixed | 0.314 | 0.988 | 0.947 | 1 | 0.592 | 0.401 | 0.562 | 0.955 | 1.25
Y fixed | 0.415 | 1.2 | 0.857 | 0.785 | 0.836 | 0.434 | 0.626 | 0.867 | 1.22
pThr fixed | 0.405 | 0.51 | 0.71 | 0.616 | 0.417 | 0.585 | 0.547 | 0.844 | 0.67
pTyr fixed | 0.36 | 0.516 | 0.998 | 0.728 | 0.619 | 0.404 | 0.561 | 0.697 | 0.898
